What was measured:
Test in all cases: cell-based or functional assay
[1] = target: HIV-1 Env of pseudovirus WITO4160.33 (HIV-1)
[2] = target: HIV-1 Env of pseudovirus 6540.v4.c1 (HIV-1)
[3] = target: HIV-1 Env of pseudovirus Ce1176_A3 (HIV-1)
[4] = target: HIV-1 Env of pseudovirus A07412M1.vrc12 (HIV-1)
[5] = target: HIV-1 Env of pseudovirus Q461.e2 (HIV-1)
[6] = target: HIV-1 Env of pseudovirus 3817.v2.c59 (HIV-1)
[7] = target: HIV-1 Env of pseudovirus 89-F1_2_25 (HIV-1)
[8] = target: HIV-1 Env of pseudovirus 3103.v3.c10 (HIV-1)
[9] = target: HIV-1 Env of pseudovirus X1632_S2_B10 (HIV-1)
[10] = target: HIV-1 Env of pseudovirus CAP45.2.00.G3 (HIV-1)
[11] = target: HIV-1 Env of pseudovirus BF1266.431a (HIV-1)
[12] = target: HIV-1 Env of pseudovirus Ce703010054_2A2 (HIV-1)
[13] = target: HIV-1 Env of pseudovirus 6535.3 (HIV-1)
[14] = target: HIV-1 Env of pseudovirus HIV-0013095-2.11 (HIV-1)
[15] = target: HIV-1 Env of pseudovirus P0402_c2_11 (HIV-1)
[16] = target: HIV-1 Env of pseudovirus T255-34 (HIV-1)
[17] = target: HIV-1 Env of pseudovirus 263-8 (HIV-1)
[18] = target: HIV-1 Env of pseudovirus 620345.c01 (HIV-1)
[19] = target: HIV-1 Env of pseudovirus P1981_C5_3 (HIV-1)
[20] = target: HIV-1 Env of pseudovirus Ce0393_C3 (HIV-1)
[21] = target: HIV-1 Env of pseudovirus 6952.v1.c20 (HIV-1)
[22] = target: HIV-1 Env of pseudovirus R3265.c06 (HIV-1)
[23] = target: HIV-1 Env of pseudovirus 6545.v4.c1 (HIV-1)
[24] = target: HIV-1 Env of pseudovirus Q259.d2.17 (HIV-1)
[25] = target: HIV-1 Env of pseudovirus HIV-16055-2.3 (HIV-1)
[26] = target: HIV-1 Env of pseudovirus CNE53 (HIV-1)
[27] = target: HIV-1 Env of pseudovirus 249M B10 (HIV-1)
[28] = target: HIV-1 Env of pseudovirus 3415.v1.c1 (HIV-1)
[29] = target: HIV-1 Env of pseudovirus Du422.1 (HIV-1)
[30] = target: HIV-1 Env of pseudovirus SC422661.8 (HIV-1)
[31] = target: HIV-1 Env of pseudovirus 246F C1G (HIV-1)
[32] = target: HIV-1 Env of pseudovirus 1006_11_C3_1601 (HIV-1)
[33] = target: HIV-1 Env of pseudovirus R1166.c01 (HIV-1)
[34] = target: HIV-1 Env of pseudovirus 62357_14_D3_4589 (HIV-1)
[35] = target: HIV-1 Env of pseudovirus 191955_A11 (HIV-1)
[36] = target: HIV-1 Env of pseudovirus THRO4156.18 (HIV-1)
[37] = target: HIV-1 Env of pseudovirus X1254_c3 (HIV-1)
[38] = target: HIV-1 Env of pseudovirus C2101.c01 (HIV-1)
[39] = target: HIV-1 Env of pseudovirus MS208.A1 (HIV-1)
[40] = target: HIV-1 Env of pseudovirus 3365.v2.c2 (HIV-1)

PGT121 (antibody)
IC50 in TZM-bl assay [1]: 0.301 µg/mL | IC80 in TZM-bl assay [1]: 3.2 µg/mL | IC50 in TZM-bl assay [2]: > 10 µg/mL | IC80 in TZM-bl assay [2]: > 10 µg/mL | IC80 in TZM-bl assay [3]: 0.063 µg/mL | IC50 in TZM-bl assay [4]: 0.034 µg/mL | IC80 in TZM-bl assay [4]: 0.255 µg/mL | IC50 in TZM-bl assay [5]: > 10 µg/mL | IC80 in TZM-bl assay [5]: > 10 µg/mL | IC50 in TZM-bl assay [6]: > 10 µg/mL | IC80 in TZM-bl assay [6]: > 10 µg/mL | IC50 in TZM-bl assay [7]: > 10 µg/mL | IC80 in TZM-bl assay [7]: > 10 µg/mL | IC50 in TZM-bl assay [8]: 0.024 µg/mL | IC80 in TZM-bl assay [8]: 0.073 µg/mL | IC50 in TZM-bl assay [9]: > 10 µg/mL | IC80 in TZM-bl assay [9]: > 10 µg/mL | IC50 in TZM-bl assay [10]: 1.3 µg/mL | IC80 in TZM-bl assay [10]: > 10 µg/mL | IC50 in TZM-bl assay [11]: > 10 µg/mL | IC80 in TZM-bl assay [11]: > 10 µg/mL | IC50 in TZM-bl assay [12]: > 10 µg/mL | IC80 in TZM-bl assay [12]: > 10 µg/mL | IC50 in TZM-bl assay [13]: 0.003 µg/mL | IC80 in TZM-bl assay [13]: 0.01 µg/mL | IC50 in TZM-bl assay [14]: > 10 µg/mL | IC80 in TZM-bl assay [14]: > 10 µg/mL | IC50 in TZM-bl assay [15]: 0.007 µg/mL | IC50 in TZM-bl assay [16]: 2.63 µg/mL | IC80 in TZM-bl assay [16]: > 10 µg/mL | IC50 in TZM-bl assay [17]: 0.647 µg/mL | IC80 in TZM-bl assay [17]: 4.68 µg/mL | IC50 in TZM-bl assay [18]: > 10 µg/mL | IC80 in TZM-bl assay [18]: > 10 µg/mL | IC50 in TZM-bl assay [19]: 0.002 µg/mL | IC80 in TZM-bl assay [19]: 0.009 µg/mL | IC50 in TZM-bl assay [20]: > 10 µg/mL | IC80 in TZM-bl assay [20]: > 10 µg/mL | IC80 in TZM-bl assay [21]: 0.348 µg/mL | IC50 in TZM-bl assay [22]: > 10 µg/mL | IC80 in TZM-bl assay [22]: > 10 µg/mL | IC50 in TZM-bl assay [23]: > 10 µg/mL | IC80 in TZM-bl assay [23]: > 10 µg/mL | IC50 in TZM-bl assay [24]: 3.07 µg/mL | IC80 in TZM-bl assay [24]: > 10 µg/mL | IC50 in TZM-bl assay [25]: 0.772 µg/mL | IC80 in TZM-bl assay [25]: 7.99 µg/mL | IC50 in TZM-bl assay [26]: 0.014 µg/mL | IC80 in TZM-bl assay [26]: 0.062 µg/mL | IC50 in TZM-bl assay [27]: > 10 µg/mL | IC80 in TZM-bl assay [27]: > 10 µg/mL | IC50 in TZM-bl assay [28]: > 10 µg/mL | IC80 in TZM-bl assay [28]: > 10 µg/mL | IC50 in TZM-bl assay [29]: 0.017 µg/mL | IC80 in TZM-bl assay [29]: 0.088 µg/mL | IC50 in TZM-bl assay [30]: 0.079 µg/mL | IC80 in TZM-bl assay [30]: 0.373 µg/mL | IC50 in TZM-bl assay [31]: 0.082 µg/mL | IC80 in TZM-bl assay [31]: 0.363 µg/mL | IC50 in TZM-bl assay [32]: 0.002 µg/mL | IC80 in TZM-bl assay [32]: 0.008 µg/mL | IC50 in TZM-bl assay [33]: > 10 µg/mL | IC80 in TZM-bl assay [33]: > 10 µg/mL | IC50 in TZM-bl assay [34]: 6.21 µg/mL | IC80 in TZM-bl assay [34]: > 10 µg/mL | IC50 in TZM-bl assay [35]: > 10 µg/mL | IC80 in TZM-bl assay [35]: > 10 µg/mL | IC50 in TZM-bl assay [36]: > 10 µg/mL | IC80 in TZM-bl assay [36]: > 10 µg/mL | IC80 in TZM-bl assay [37]: 0.085 µg/mL | IC50 in TZM-bl assay [38]: > 10 µg/mL | IC80 in TZM-bl assay [38]: > 10 µg/mL | IC50 in TZM-bl assay [39]: > 10 µg/mL | IC80 in TZM-bl assay [39]: > 10 µg/mL | IC50 in TZM-bl assay [40]: 0.243 µg/mL | IC80 in TZM-bl assay [40]: 2.13 µg/mL
